In assay [1] the target is T1, recombinant human B7H3-Fc protein (human, UniProt Q5ZPR3 29-466, limits assumed).
T1 construct: 154 kDa non-reduced, 77 kDa reduced; also called hB7H3-Fc; not shown: Fc part
T1 sequence (looked up): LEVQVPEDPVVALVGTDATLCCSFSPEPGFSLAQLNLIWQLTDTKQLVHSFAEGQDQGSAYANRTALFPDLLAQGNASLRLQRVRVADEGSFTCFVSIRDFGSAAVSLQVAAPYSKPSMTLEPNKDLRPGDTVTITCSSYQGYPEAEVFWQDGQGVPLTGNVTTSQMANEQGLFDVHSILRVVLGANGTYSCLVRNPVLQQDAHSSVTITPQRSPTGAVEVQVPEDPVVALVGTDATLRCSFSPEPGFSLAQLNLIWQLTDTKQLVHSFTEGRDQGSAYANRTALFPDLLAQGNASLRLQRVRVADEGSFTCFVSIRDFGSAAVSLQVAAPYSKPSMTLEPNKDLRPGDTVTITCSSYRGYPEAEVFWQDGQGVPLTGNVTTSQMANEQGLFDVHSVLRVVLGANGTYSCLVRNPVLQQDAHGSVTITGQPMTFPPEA
The experiment in a line: phage ELISA. The method in brief:
(§1)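 Camel VHH phage were panned on recombinant B7H3-Fc protein for 3 rounds, using libraries from eight individual camels. Binding of the selected phage to immobilised antigens (human and other-species B7H3 or control proteins) was measured by phage ELISA and recorded as the ELISA signal.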

In another assay the target is IgG control. The assay is described as follows: phage ELISA. The method in brief:
as §1
Background: In an ELISA, binding on a coated surface is turned into a signal by an enzyme label.

For assay [2], the target named is T2, monkey B7H3-His (monkey).
T2 chain: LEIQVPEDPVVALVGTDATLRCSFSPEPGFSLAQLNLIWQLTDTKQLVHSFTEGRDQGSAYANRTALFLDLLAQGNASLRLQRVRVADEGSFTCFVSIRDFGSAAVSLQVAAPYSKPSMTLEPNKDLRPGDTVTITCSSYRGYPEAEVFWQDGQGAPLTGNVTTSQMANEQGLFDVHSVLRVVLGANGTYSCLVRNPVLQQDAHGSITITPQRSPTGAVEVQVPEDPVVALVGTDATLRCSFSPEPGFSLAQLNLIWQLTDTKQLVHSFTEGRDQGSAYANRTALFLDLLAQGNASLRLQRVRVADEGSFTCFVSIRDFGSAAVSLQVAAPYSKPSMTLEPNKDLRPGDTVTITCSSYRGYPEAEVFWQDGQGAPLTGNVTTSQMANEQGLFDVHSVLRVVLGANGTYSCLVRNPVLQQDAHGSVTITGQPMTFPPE
The experiment in a line: ELISA, purified VHH. The essentials: (§2)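 The values are ELISA signals for binding of purified camel VHH nanobodies to immobilised recombinant B7H3 fusion proteins and to non-B7H3 comparison proteins. The nanobodies came from phage panning on recombinant B7H3-Fc.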

Assay [3] has as its target T1, recombinant human B7H3-Fc protein. The experiment in a line: ELISA, purified VHH. The method in brief: as §2
The target of the next assay is T3, hB7H3-His (human, UniProt Q5ZPR3 29-461, limits assumed).
T3 construct: not shown: His tag
T3 sequence (looked up): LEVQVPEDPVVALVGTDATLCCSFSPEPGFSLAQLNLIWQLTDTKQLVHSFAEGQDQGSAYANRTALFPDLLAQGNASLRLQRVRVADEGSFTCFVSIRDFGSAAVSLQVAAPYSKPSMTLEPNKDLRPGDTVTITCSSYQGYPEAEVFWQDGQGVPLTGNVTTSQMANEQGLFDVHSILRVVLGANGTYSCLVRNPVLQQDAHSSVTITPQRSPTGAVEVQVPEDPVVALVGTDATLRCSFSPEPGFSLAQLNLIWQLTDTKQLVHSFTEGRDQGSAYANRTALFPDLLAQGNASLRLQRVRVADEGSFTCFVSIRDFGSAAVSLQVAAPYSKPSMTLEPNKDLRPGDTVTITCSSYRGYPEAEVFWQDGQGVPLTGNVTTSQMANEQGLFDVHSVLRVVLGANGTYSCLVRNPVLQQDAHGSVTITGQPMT
The experiment in a line: ELISA, purified VHH. The essentials: as §2

Assay [4] addresses T4, rat B7H3-His (rat, UniProt Q7TPB4 29-244, limits assumed).
T4 construct: not shown: His tag
T4 sequence (looked up): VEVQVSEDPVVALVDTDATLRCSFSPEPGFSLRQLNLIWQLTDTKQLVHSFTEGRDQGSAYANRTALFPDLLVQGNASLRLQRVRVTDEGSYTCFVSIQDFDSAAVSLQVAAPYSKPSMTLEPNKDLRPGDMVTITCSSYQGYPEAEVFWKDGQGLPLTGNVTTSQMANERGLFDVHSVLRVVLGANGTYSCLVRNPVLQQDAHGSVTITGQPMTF
The experiment in a line: ELISA, purified VHH. The essentials: as §2

The target in assay [5] is Non-relevant antigen. The experiment in a line: ELISA, purified VHH. The method in brief: as §2
Assay [6] concerns the target T2, monkey B7H3-His. The assay is described as follows: phage ELISA, cross-species. The essentials: as §1
Assay [7] addresses T4, rat B7H3-His. The experiment in a line: phage ELISA, cross-species. The method in brief: as §1
The target in a further assay is T5, mouse B7H3-His (mouse, UniProt Q8VE98 29-244, limits assumed).
T5 construct: also called recombinant mouse B7H3-His protein; not shown: His tag
T5 sequence (looked up): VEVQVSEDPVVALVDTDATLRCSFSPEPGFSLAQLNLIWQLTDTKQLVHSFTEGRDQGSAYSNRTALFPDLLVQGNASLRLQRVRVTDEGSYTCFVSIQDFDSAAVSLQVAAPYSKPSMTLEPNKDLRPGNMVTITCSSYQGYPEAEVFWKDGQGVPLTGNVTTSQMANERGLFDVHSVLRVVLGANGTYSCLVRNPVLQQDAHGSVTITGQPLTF
The experiment in a line: phage ELISA, cross-species. The essentials:
as §1

Another assay addresses T6, human B7H3 (human, UniProt Q5ZPR3 29-466, limits assumed).
T6 construct: also called human B7H3 protein
T6 sequence (looked up): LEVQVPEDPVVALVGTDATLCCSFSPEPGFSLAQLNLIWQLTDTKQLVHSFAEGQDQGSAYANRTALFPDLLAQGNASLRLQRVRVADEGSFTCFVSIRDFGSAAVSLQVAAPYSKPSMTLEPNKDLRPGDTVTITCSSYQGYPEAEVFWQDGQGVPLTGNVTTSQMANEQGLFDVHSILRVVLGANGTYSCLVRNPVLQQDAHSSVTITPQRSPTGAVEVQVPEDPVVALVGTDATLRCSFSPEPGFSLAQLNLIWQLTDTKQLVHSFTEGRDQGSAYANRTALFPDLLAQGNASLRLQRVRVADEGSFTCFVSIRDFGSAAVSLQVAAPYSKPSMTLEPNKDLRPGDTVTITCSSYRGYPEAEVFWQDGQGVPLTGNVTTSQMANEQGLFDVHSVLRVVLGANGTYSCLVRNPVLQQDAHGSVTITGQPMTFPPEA
The experiment in a line: phage ELISA, cross-species. The essentials: as §1

Assay [8] concerns the target Non-relevant antigen. The experiment in a line: phage ELISA, cross-species. The method in brief: as §1
The next assay deals with PD-L1. The experiment in a line: ELISA, purified VHH, cross-reaction.
The target in assay [9] is T7, B7H3 (CD276) on MC38-CD276+ cells.
T7 construct: whole, on cells; MC38-CD276KO cells served as the negative control; also called MC38-B7H3+
T7 sequence (Q5ZPR3 1-534, species assumed, looked up): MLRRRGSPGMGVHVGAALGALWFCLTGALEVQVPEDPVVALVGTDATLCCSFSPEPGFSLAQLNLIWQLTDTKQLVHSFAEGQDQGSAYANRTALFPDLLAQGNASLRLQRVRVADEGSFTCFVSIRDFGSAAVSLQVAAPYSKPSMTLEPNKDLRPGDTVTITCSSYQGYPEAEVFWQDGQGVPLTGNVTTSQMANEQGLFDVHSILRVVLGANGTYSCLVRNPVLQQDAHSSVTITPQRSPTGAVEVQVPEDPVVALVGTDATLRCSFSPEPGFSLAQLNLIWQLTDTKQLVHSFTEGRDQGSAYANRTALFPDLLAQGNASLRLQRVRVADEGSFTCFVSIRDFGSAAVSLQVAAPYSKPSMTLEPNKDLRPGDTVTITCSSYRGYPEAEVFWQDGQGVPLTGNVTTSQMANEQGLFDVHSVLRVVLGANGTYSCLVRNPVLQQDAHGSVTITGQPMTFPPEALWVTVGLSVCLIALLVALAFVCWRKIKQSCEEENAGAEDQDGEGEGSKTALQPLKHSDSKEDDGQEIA
The assay is described as follows: flow cytometry on MC38-CD276+ cells, VHH at 2 ug/ml. Background: In flow cytometry, cells or beads pass a laser one at a time.

Assay [10] shares this target. The experiment in a line: flow cytometry on MC38-CD276+ cells, VHH at 10 ug/ml.
Assay [11] has the same target. The assay is described as follows: flow cytometry on MC38-CD276+ cells, VHH at 50 ug/ml.
The target is the same in assay [12]. The experiment in a line: flow cytometry on MC38-CD276+ cells, VHH at 0.5 ug/ml.

Data on five molecules can be found in US20220380471A1 (US Dept. of Health and Human Services, published 2022).

PD-L1, sequence (Q9NZQ7 whole entry): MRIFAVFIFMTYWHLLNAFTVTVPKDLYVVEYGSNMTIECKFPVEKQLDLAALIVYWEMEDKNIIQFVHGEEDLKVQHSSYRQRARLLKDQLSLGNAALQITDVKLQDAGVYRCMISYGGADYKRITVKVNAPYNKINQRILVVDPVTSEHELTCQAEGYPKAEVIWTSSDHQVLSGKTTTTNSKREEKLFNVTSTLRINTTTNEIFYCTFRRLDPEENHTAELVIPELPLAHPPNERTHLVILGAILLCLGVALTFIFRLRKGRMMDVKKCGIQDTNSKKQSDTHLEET

B1: RWH1 (VHH)
VHH: AVQLVESGGGSVQAGGSLRLSCAASGMNLDNYVRGWLRQAPGSKCEFVSIIRRDGTTDYGDSVKGRFTISRDNAKNTVYLQMNSLKPDDTAVYYCAAIVVPRAAEYACDGLPYRGQGTQVTVSS
notes: Camel VHH; tag not described; also called camel antibody RWH1
For B1, the ELISA signal in [1] came to 2.75; with IgG control, 0.136; with monkey B7H3-His [2], 1.3; in [3], 2.59; with hB7H3-His, 2.65; with rat B7H3-His [4] it was 0.134. For the same molecule, the ELISA signal with Non-relevant antigen [5] was determined as 0.131; with monkey B7H3-His [6], 0.0706; with rat B7H3-His [7] it was 0.0951; with mouse B7H3-His, 0.0738; with human B7H3 it was 2.03; in the assay with Non-relevant antigen [8], 0.0608. The ELISA signal in the assay with PD-L1 was determined as 0.0753.

B2: RWC3 (VHH)
VHH: QVQLVESGGGLVQPGGSLSVSCAASGFTFSVYWFYWVRQAPRQGLEWVSTIASNGSTYYSDSVKGRFTISRDNAKNTVYLQMNSLKPEDTAVYYCVSDPDYYSDYERAYKFWAQGTQVTVSS
notes: Camel VHH; tag not described; also called camel antibody RWC3
B2: the ELISA signal in assay [1] turned out to be 2.42; with IgG control, 0.0888; in [3] it was 2.34; with monkey B7H3-His [6], 0.228; with rat B7H3-His [7], 0.738; with mouse B7H3-His, 0.0759. For the same molecule, the ELISA signal worked out at 2.14 in the assay with human B7H3, 0.0654 with Non-relevant antigen [8] and 0.0454 with PD-L1.

B3: RWD9 (VHH)
VHH: EVQLVESGGGLVQPGGSLSVSCAASGFTFSVYWFYWVRQAPRQGLEWVSTIASNGSTYYSDSVKGRFTISRDNAKNTVYLQMNSLKPEDTAVYYCVSDPDYYSDYERAYKFWAQGTQVTVSS
notes: Camel VHH; tag not described; also called camel antibody RWD9
Regarding B3, the ELISA signal in [1] came out at 2.43; with IgG control it was 0.0788; in assay [3] it was 0.499; in the assay with monkey B7H3-His [6] it was 0.237; with rat B7H3-His [7], 0.778; in the assay with mouse B7H3-His, 0.0782. For the same molecule, the ELISA signal in the assay with human B7H3 turned out to be 2.21; in the assay with Non-relevant antigen [8] it was 0.113; with PD-L1 it was 0.0438.

B4: RWD5 (VHH)
VHH: AVQLVESGGGLVQPGGSLSVSCAASGFTFSVYWFYWVRQAPRQGLEWVSTIASNGSTYYSDSVKGRFTISRDNAKNTVYLQMNSLKPEDTAVYYCVSDPDYYSDYEREYKFWAQGTQVTVSS
notes: Camel VHH; tag not described; also called RWDS [sic]; camel antibody RWD5
Regarding B4, the ELISA signal in assay [1] was determined as 2.5; in the assay with IgG control, 0.0685; in assay [3] it was 2.37; in the assay with monkey B7H3-His [6], 0.267; with rat B7H3-His [7] it was 0.871; with mouse B7H3-His it was 0.0819. Further, the results for the ELISA signal with human B7H3, with Non-relevant antigen [8] and with PD-L1 were 2.13, 0.0583 and 0.0471, respectively. In addition, the Positive rates in assay [9] came out at 1.44%; in [10] it was 44.9%; in assay [11] it was 88.9%; in [12] it was 0.19%.

B5: RWH5 (VHH)
VHH: AVQLVESGGGSVQAGGSLRLSCKASGYCMGWFRQAPGKEREGVAALNTEGGVTYYADSVKGRFSISRDNTNLYLQMNSLKPEDTAIYYCAADDRPTRCAVGSLYLPYTYRGQGTQVTVSS
notes: Camel VHH; tag not described; also called RWHS [sic]; camel antibody RWH5
With B5, the ELISA signal came out at 0.0979 with monkey B7H3-His [2] and 2.22 with monkey B7H3-His [6].
